Test results published in patent publication US12006343B2, “C4BP-based compounds for treating immunological diseases” (FUNDACIO INSTITUT D'INVESTIGACIO BIOMEDICA DE BELLVITGE …, priority 2017, dated 2024).
Entries after “also recorded” stand apart in the source; their conditions may differ.

Experiments:
[1] = mouse, in vivo, cited from earlier work
[2] = test system: human monocyte-derived DCs; experiment: Immunomodulatory activity over human monocyte-derived DCs: CD83/CD86 surface expression by flow cytometry after LPS maturation; type: cell-based; details: FIG. 4
Description: In Vitro Functional Assessment of the Immunomodulatory Activity of Full-Length C4BP(β−) and C4BP(β−) Variants Over DCs
The inventors used for the in vitro study both C4BP(β+) (WT) and recombinant C4BP(β−) isoforms, and the above-referred mutants or variants: Mutant 1 and Mutant 2. C4BP(β+) isoforms refer to the major C4BP α7β1 plus the minor C4BP α6β1 isoforms (both in complex with ProS) purified from pooled human plasma.
RPMI 1640 was supplemented with 100 μg/ml of streptomycin, 100 IU/ml of penicillin, 2 mM L-glutamine (all from Invitrogen, Carlsbad, CA) and 10% heat-inactivated fetal bovine serum (Linus, Cultek, Spain) (complete medium), unless otherwise stated.
Peripheral blood mononuclear cells (PBMCs) were obtained from buffy coat preparations collected from healthy donors from the Blood and Tissue Bank (Barcelona, Spain) after Ficoll-Paque™ density centrifugation (GE Healthcare Bio-Sciences AB; Uppsala, Sweden). For surface phenotype determination, monocytes were plated at 1×10^6 cells/ml in 60 mm culture plates (Corning, Spain), in RPMI 1640 medium without serum, and allowed to adhere for 2 h at 37° C. in 5% CO2. The non-adherent cells were removed by washing in PBS.
Monocyte-derived DCs were generated supplementing the monocyte cultures with complete RPMI 1640 medium plus GM-CSF (800 UI/ml) and IL-4 (500 UI/ml) (both from Gentaur, Kampenhout, Belgium) at day 0 and day 3 of culture. For DC maturation, at day 5 iDCs were further stimulated for 48 h with 5 μg/ml LPS (Escherichia coli 055.B5, Sigma L2880, Copenhagen, Denmark).
Staining using the fluorescent dye 7-amino-actinomycin D (7-AAD) (BD Pharmigen) and flow cytometry analysis was employed to assess the viability status of C4BP-treated and untreated DCs.
Cell surface phenotypes were analyzed by flow cytometry using the following mAbs: FITC-conjugated anti-CD83 (HB15a) and PE-conjugated anti-CD86 (HA5.2B7) (all from Beckman-Coulter). The respective isotype controls FITC-conjugated anti-IgG2b (H2) and PE-conjugated anti-IgG2b (H2), were from the same commercial sources. After washing with PBS, cells were subsequently stained with 3 μl mAb/10^5 cells in 100 μl of FACS buffer (PBS containing 1% BSA and 0.1% sodium azide) for 20 min at room temperature. To exclude dead cells and debris, DCs were gated according to forward scatter (FSC) and side scatter (SSC) parameters. Stained cells were analyzed using a FACSCalibur (Becton Dickinson, Franklin Lakes, NJ) equipped with CellQuestPro software (Becton Dickinson).
In Vitro Functional Assessment of C4BP(β−) Immunomodulatory Activity Over DCs
The inventors used for the in vitro study both C4BP(+) and C4BP(β−) isoforms. C4BP(3+) isoforms refer to the major C4BP α7β1 plus the minor C4BP α6β1 isoforms (both in complex with ProS) purified from pooled human plasma, as previously described (Dahlbäck B. 1983. Biochem J., 209:847-56).

lupus-prone NZBWF1 mice [3] = experiment: Renal function (24 h proteinuria) in spontaneous SLE mouse model NZBWF1; type: in vivo; details: for delay in the onset of proteinuria: vs PBS-treated control
Description: Mice, Study Design and Follow Up
NZB/NZW F1 or NZBWF1/J (Charles-River), NZB/NZW F1 (Jackson, code 100008) are a hybrid cross between NZB/B1NJ (Jackson, code 000684) Female x NZW/LacJ (Jackson, code 001058) Male. NZBWF1/J mice develop an autoimmune disease resembling human systemic lupus erythematosus. The inventors used 58 females (30-35 g/each) aged 15 weeks for the study (4-5 animals per cage). The animals were maintained under standard laboratory conditions, at 20-24° C. and 40-70% relative humidity, with 12-hour fluorescent light/12-hour dark cycle. They were feed standard diet and tap water ad libitum. […]
Dose Selection and Administration.
The selection of the C4BP(β−) dose for in vivo administration was based in previous studies employing complement-related proteins in immune-inflammatory pathologies. Blom et al. (Blom et al. 2009. Ann. Rheum. Dis., 68:136-42) used the C4BP isoform lacking β chain in experimental collagen-induced arthritis (CIA) and collagen antibody-induced arthritis (CAIA) mice to investigate the influence of complement activity in the treatment of rheumatoid arthritis. These authors administered intraperitoneally C4BP (2 mg/mouse) using a multiple dose-regimen once every two days in preventive and therapeutic experiments. Thus, in the current study, C4BP(β−) was administered both intraperitoneally (IP) and subcutaneously (SC) into NZBWF1 mice for three months (between six and nine months of age).
Alperovich et al (Alperovich et al. 2007. Lupus, 16:18-24) administered cyclophosphamide (CYP) to NZBWF1 mice at 50 mg/kg IP every 10 days.
(§1) Both IP and SC administrations for C4BP(β−), CYP and PBS (150 μl/each) were performed with a 25-gauge needle during 30 s, after rinsing the skin with 70% ethanol.
(§2) The detailed administration schedule was as follows (Table 5):
Body weight was determined twice monthly from the beginning to the end of follow-up. Mice were placed in metabolic cages to collect 24 h urine specimens before the onset of treatment and monthly thereafter. Blood was obtained from the tail vein at monthly intervals.
Renal Function Analysis: Proteinuria
24 h urinary protein was determined by pyrogallol red (Olympum Autoanalyzer AU400, Hamburg, Germany) in the Veterinary Clinical Biochemistry Laboratory from Universitat Autonoma de Barcelona.
(§3) One-way analysis of variance (ANOVA) with post hoc tests was performed to compare proteinuria throughout the follow up. Survival data were analyzed using Kaplan-Meier curves and long-rank test. P value<0.05 was considered significant. Data are expressed as mean±SEM.

lupus-prone NZBWF1 mice [4] = experiment: Kaplan-Meier survival in spontaneous SLE mouse model NZBWF1; type: in vivo; details: for mice still alive at the end of the study: 330 days
Description: NZBWF1/J mice develop an autoimmune disease resembling human systemic lupus erythematosus. […] The animals were maintained under standard laboratory conditions, at 20-24° C. and 40-70% relative humidity, with 12-hour fluorescent light/12-hour dark cycle. They were feed standard diet and tap water ad libitum.
as §1, §2, §3

[5] = IP, 5 μg/mouse once every two weeks
[6] = IP, 50 μg/mouse once every two weeks
[7] = IP, 500 μg/mouse once every two weeks

B1: C4BP: human C4b-binding protein as used by Blom et al. 2009, intraperitoneally in mice (protein, UniProt P04003 49-597; P20851 18-252, looked up)
C4b-binding protein alpha …: NCGPPPTLSFAAPMDITLTETRFKTGTTLKYTCLPGYVRSHSTQTLTCNSDGEWVYNTFCIYKRCRHPGELRNGQVEIKTDLSFGSQIEFSCSEGFFLIGSTTSRCEVQDRGVGWSHPLPQCEIVKCKPPPDIRNGRHSGEENFYAYGFSVTYSCDPRFSLLGHASISCTVENETIGVWRPSPPTCEKITCRKPDVSHGEMVSGFGPIYNYKDTIVFKCQKGFVLRGSSVIHCDADSKWNPSPPACEPNSCINLPDIPHASWETYPRPTKEDVYVVGTVLRYRCHPGYKPTTDEPTTVICQKNLRWTPYQGCEALCCPEPKLNNGEITQHRKSRPANHCVYFYGDEISFSCHETSRFSAICQGDGTWSPRTPSCGDICNFPPKIAHGHYKQSSSYSFFKEEIIYECDKGYILVGQAKLSCSYSHWSAPAPQCKALCRKPELVNGRLSVDKDQYVEPENVTIQCDSGYGVVGPQSITCSGNRTWYPEVPKCEWETPEGCEQVLTGKRLMQCLPNPEDVKMALEVYKLSLEIEQLELQRDSARQSTLDKEL
C4b-binding protein beta chain: SDAEHCPELPPVDNSIFVAKEVEGQILGTYVCIKGYHLVGKKTLFCNASKEWDNTTTECRLGHCPDPVLVNGEFSSSGPVNVSDKITFMCNDHYILKGSNRSQCLEDHTWAPPFPICKSRDCDPPGNPVHGYFEGNNFTLGSTISYYCEDRYYLVGVQEQQCVDGEWSSALPVCKLIQEAPKPECEKALLAFQESKNLCEAMENFMQQLKESGMTMEELKYSLELKKAELKAKLL
initial amount remaining in the circulation ([1]; ip): 3% | clearance from the circulation [1]: cleared fast

B2: rC4BP(β−): recombinant C4BP isoform lacking the β-chain, transiently produced in HEK293 cells (Expi293 cells) (protein, UniProt P04003 49-597, looked up)
C4b-binding protein alpha …: NCGPPPTLSFAAPMDITLTETRFKTGTTLKYTCLPGYVRSHSTQTLTCNSDGEWVYNTFCIYKRCRHPGELRNGQVEIKTDLSFGSQIEFSCSEGFFLIGSTTSRCEVQDRGVGWSHPLPQCEIVKCKPPPDIRNGRHSGEENFYAYGFSVTYSCDPRFSLLGHASISCTVENETIGVWRPSPPTCEKITCRKPDVSHGEMVSGFGPIYNYKDTIVFKCQKGFVLRGSSVIHCDADSKWNPSPPACEPNSCINLPDIPHASWETYPRPTKEDVYVVGTVLRYRCHPGYKPTTDEPTTVICQKNLRWTPYQGCEALCCPEPKLNNGEITQHRKSRPANHCVYFYGDEISFSCHETSRFSAICQGDGTWSPRTPSCGDICNFPPKIAHGHYKQSSSYSFFKEEIIYECDKGYILVGQAKLSCSYSHWSAPAPQCKALCRKPELVNGRLSVDKDQYVEPENVTIQCDSGYGVVGPQSITCSGNRTWYPEVPKCEWETPEGCEQVLTGKRLMQCLPNPEDVKMALEVYKLSLEIEQLELQRDSARQSTLDKEL
modifications: alpha-chain-only isoform, recombinant
semi-mature, anti-inflammatory phenotype conferred to LPS-matured MoDCs (immunomodulatory activity) ([2]; MoDCs pre-incubated with 5 μg/ml protein, LPS challenge): able to confer an analogous semi-mature, anti-inflammatory phenotype | CD83 and CD86 surface marker expression ([2]; human MoDCs, 5 μg/ml C4BP isoform, LPS 5 μg/ml): restrain similarly CD83 and CD86 surface marker expression | proteinuria by week 37 (lupus-prone NZBWF1 mice [3]; [5]): severe proteinuria indistinguishable from the PBS-treated control group | delay in the onset of proteinuria (lupus-prone NZBWF1 mice [3]; [5]): 2 week | proteinuria by week 37 (lupus-prone NZBWF1 mice [3]; [6]): severe proteinuria indistinguishable from the PBS-treated control group | delay in the onset of proteinuria (lupus-prone NZBWF1 mice [3]; [6]): 2 week | proteinuria level at the end of the study (week 37) (lupus-prone NZBWF1 mice [3]; [7]): ~300 mg protein/kg | delay in the onset of proteinuria (lupus-prone NZBWF1 mice [3]; [7]): 6 weeks | proteinuria by week 37 (end of the study) (lupus-prone NZBWF1 mice [3]; SC, 50 μg once every two weeks): < 200 mg/kg | onset / development of proteinuria (lupus-prone NZBWF1 mice [3]; mouse, in vivo, sc): significantly delayed; also recorded: strongest attenuation of proteinuria development | efficacy, SC 50 μg/mouse vs IP 500 μg/mouse (lupus-prone NZBWF1 mice [3]; same regimen, SLE mouse model): more effective than the intraperitoneal administration of 500 μg/mouse | survival (lupus-prone NZBWF1 mice [4]; IP, 5 μg once every two weeks, all mice died at end of study (330 days)): performed similarly to the control PBS-treated group | mice still alive at the end of the study (lupus-prone NZBWF1 mice [4]; IP, 50 μg once every two weeks): 20-30% | mice still alive at the end of the study (lupus-prone NZBWF1 mice [4]; IP, 500 μg once every two weeks): 20-30% | mice active at the end of the study (lupus-prone NZBWF1 mice [4]; SC route, all treatment groups): maintained mice active at the end of the study | mice alive at 330 days (lupus-prone NZBWF1 mice [4]; SC, 50 μg once every two weeks): more than 60% | survival respect to control PBS-treated mice (lupus-prone NZBWF1 mice [4]; SC, 50 μg once every two weeks): appreciably delay their survival; also recorded: best survival rate | progress of the disease (lupus-prone NZBWF1 mice [4]; SC, 50 μg, NZBWF1 mice): substantial slowing of the progress of the disease | statistical analysis of Kaplan-Meier survival curves vs control PBS-treated group (lupus-prone NZBWF1 mice [4]; any of the rC4BP(β−)-treated groups, n=6): no statistically significant differences | survival, subcutaneous route compared with intraperitoneal route (lupus-prone NZBWF1 mice [4]; doses of 5 μg and 50 μg, FIG. 6): higher
